Reference: article PMC6783550, “Molecular mechanism of azoxy bond formation for azoxymycins biosynthesis” (Nature Communications, 2019)

Columns and labels:
[1] = target: AzoC (Streptomyces chattanoogensis); experiment: native gel or EMSA + SEC; Native-PAGE and size-exclusion chromatography of purified recombinant AzoC; SEC on Sephacryl S-300, AKTA Purifier, 4 °C, 20 mM Tris pH 8.0, 250 mM NaCl, 1 mL/min, markers IgG (150 kDa) and BSA (67 kDa); self-association, homodimer
Nc1ccc(/C=C/C(=O)O)cc1 = experiment: purified protein; conditions: 30 °C, general assay: 1 mM NADH, 10 μM PMS, O2, 20 mM HEPES pH 7

Row | stoichiometry N [1] | Substance | Km (Nc1ccc(/C=C/C(=O)O)cc1) | kcat (Nc1ccc(/C=C/C(=O)O)cc1)
1 | 2 | AzoC (enzyme) | – | –
2 | – | AzoC (Streptomyces chattanoogensis) | 4.24 ± 0.9 µM | 0.7005 ± 0.0698 s⁻¹
